Assay [1] concerns the target T1, Tau in brain lysate samples from AD patients (human, UniProt P10636-8 2-441, limits assumed).
T1 construct: A mixture of isoforms; The phosphorylation state was not defined by the experiment; also called different length isoforms of Tau in AD samples
Description: Western blot of brain lysates. On the procedure: (§1) In FIG. 26, Western blots were used to assess binding of various antibodies to brain lysate samples from AD patients and Control subjects. Protein ladders were run in lanes 1 and 10. Phosphatase treated pTau loaded in an amount of 0.05 ug was run in lane 2. Full-length Tau (Tau411) loaded in an amount of 0.05 ug was run in lane 3. Lanes 4-6 contain samples from different Control subjects with a dilution factor of 5. Lanes 7-9 contain samples from different AD subjects with a dilution factor of 5.
(In western blotting, separated proteins are transferred to a membrane and probed.)

Assay [2] has as its target T2, Tau in brain lysate samples from Control subjects (human, UniProt P10636-8 2-441, limits assumed).
T2 construct: A mixture of isoforms; also called different length isoforms of Tau in control samples
Kind of assay: Western blot of brain lysates. On the procedure: as §1

The next assay addresses Bio-pt655 (phospho T217). Kind of assay: indirect ELISA: biotinylated peptide on streptavidin plate, antibody titrated, peroxidase tracer antibody, TMB, OD450-630nm; panel 'Bio-pt655 (phospho T217)'. As for the experimental part: Tau antibodies described herein that detect phosphorylated Tau were tested in ELISA assays. […] Briefly, streptavidin beads were bound to a plate and biotinylated peptide was added to the plates under conditions allowing for biotin-streptavidin binding. […] This was the target peptide. After binding of the synthetic peptide to the plate by the formation of the biotin-streptavidin complex, Tau antibodies were added to the plates under conditions allowing for antibody-target peptide binding. […] After binding, plates were washed to remove any unbound tracer antibody and plates next had TMB ELISA Peroxidase chromogenic substrate (3, 3′, 5, 5′-Tetramethylbenzidine) added to visualize antibody reactivity in indirect ELISA experiments. Antibody sample binding was quantitated using an ELISA microplate reader.
PT3 corresponds to a mouse anti-phospho (T212/T217) Tau selective antibody (Janssen Biotech Inc.). 30H10L2 corresponds to Antibody 2 described herein. 71H1L2 corresponds to Antibody 6 described herein. 62H10L7 corresponds to Antibody 5 described herein.
(In an ELISA, binding on a coated surface is turned into a signal by an enzyme label.)

The next assay concerns the target Adx-pt655. Description: capture ELISA: 30H10L2 bound to the plate, biotinylated peptide titrated (the concentration is that of Adx-pt655), streptavidin-peroxidase, TMB, OD450-630nm. The text has this: In FIG. 25, a diagram of an assay using Antibody 2 to detect capture of particular Tau peptides is depicted. In this assay, Antibody 2 is bound to a plate and sample wells from the plate are subjected to various biotinylated peptides under conditions conducive to forming specific antibody-ligand interactions. Samples are then washes to remove excess unbound biotinylated peptide. Streptavidin beads conjugated to peroxidase and then added to the samples to allow biotin-streptavidin complexes to form on peptide bound antibodies. TMBred substrate is then added and samples are measured for colorimetric development using an ELISA plate reader. […] Antibody 5 and Antibody 6 tested by indirect ELISA under the same conditions using the same Tau peptides yielded no specific dose-dependent reactivity toward the Tau peptides tested.

Substitutions are numbered along the chain they refer to.

T2 sequence (P10636 other isoform, or with tags, fused parts or gaps limits assumed): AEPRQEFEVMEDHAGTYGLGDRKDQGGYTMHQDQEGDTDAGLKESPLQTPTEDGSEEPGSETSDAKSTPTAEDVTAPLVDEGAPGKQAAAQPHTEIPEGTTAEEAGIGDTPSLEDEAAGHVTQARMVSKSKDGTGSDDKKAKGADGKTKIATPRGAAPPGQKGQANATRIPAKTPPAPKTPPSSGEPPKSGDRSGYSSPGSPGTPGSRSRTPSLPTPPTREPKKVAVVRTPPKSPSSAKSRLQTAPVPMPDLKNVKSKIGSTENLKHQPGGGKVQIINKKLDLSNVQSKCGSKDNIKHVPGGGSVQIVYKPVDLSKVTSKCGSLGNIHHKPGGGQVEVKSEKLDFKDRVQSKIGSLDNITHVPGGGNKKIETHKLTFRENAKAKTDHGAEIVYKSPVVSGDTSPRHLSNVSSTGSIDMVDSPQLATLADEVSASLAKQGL
T1 sequence (P10636 other isoform, or with tags, fused parts or gaps limits assumed): as above

B1: Antibody 6 (antibody, V domains shown)
VH: QSLEESGGRLVTPGTPLTLTCTVSGIDLSTHAMTWVRQAPGKGLEWIGVINPSGSAYYATWVNGRFTISKTSTTVDLKITSPTTGDTAKYFCARDYITAGDYYMDAFDPWGPGTLVTVSS
VL: DIVMTQTPASVSAAVGGTVTIKCQASQSISNQLSWYQQKSGQPPKLLIYRASTLASGVPSRFKGSGSGTEFTLTISDLECADAATYYCQQGYNRDNVDNLFGGGTEVVVKG
notes: also called 71H1L2
Take B1: the binding result in assay [1] and in assay [2] was “no binding (tested: DF 5)” throughout.

B2: Antibody 2 (antibody, V domains shown)
VH: QSVEESGGRLVTPGTPLTLTCTVSGFSLSSYAMIWVRQAPGKGLEWIGFISRSGITYYASWAKGRFTISKTSTTVDLKMTSLTTEDTATYFCAREFGAVGSDYYRDAFNLWGPGTLVTVSS
VL: DIVMTQTPASVEAAVGGTVTINCQASESINSWLSWYQQKPGQPPNLLIYRASTLASGVPSRFSGGGSGTEYTLTISDLECADAVTYYCQSYYEEDGIGYAFGGGTEVVVEG
notes: also called 30H10L2
B2: the EC50 (read off the curve) (as a rule, the concentration at which the effect is half-maximal) with Bio-pt655 (phospho T217) was approximately 0.2 µg/mL; with Adx-pt655, approximately 0.4 µg/mL.

B3: Antibody 5 (antibody, V domains shown)
VH: B2 VH with R9G, T15G, P16T, S30N, I34S, M79I, L82P, T89A, F108L, N109R
VL: DIVMTQTPSSVSAAVGGTVTIKCQASQSIGSNLAWYQQKPGQPPKLLIYGASTLESGVPSRFKGSGSGTEYTLTISDLECADAATYYCQSYYEGSDIGYAFGGGTEVVVEG
notes: also called 62H10L7
For B3, the binding result in assay [1] and in assay [2] was “no binding (tested: DF 5)” throughout.

The values are drawn from patent US20260008840A1 (ALZPATH, published 2026).
